± gives the standard deviation of the averaged measurements. Some results are limits rather than exact numbers.

The results in this text go back to the supplement of paper PMC11246515.

A short description of this data set: total protein half-life in vivo (active degradation + dilution); higher = more stable protein.
Where [1] appears, read: E. coli NCM3722 delta-clpP delta-lon delta-hslV, growth: N-lim chemostat, doubling time 6 h.
Setting [2] is: E. coli NCM3722 delta-hslV, growth: N-lim chemostat, doubling time 6 h.
The mark [3] stands for this setting: E. coli NCM3722 delta-lon, growth: N-lim chemostat, doubling time 6 h.
Where [4] appears, read: E. coli NCM3722 delta-smpB, growth: N-lim chemostat, doubling time 6 h.
Setting [5] is: wild type E. coli NCM3722, growth: C-lim chemostat, doubling time 3 h.
Where [6] appears, read: wild type E. coli NCM3722, growth: C-lim chemostat, doubling time 6 h.
Where [7] appears, read: wild type E. coli NCM3722, growth: C-lim chemostat, doubling time 12 h.
Where [8] appears, read: wild type E. coli NCM3722, growth: N-lim chemostat, doubling time 6 h.
[9] abbreviates: wild type E. coli NCM3722, growth: N-lim chemostat, doubling time 12 h.
Where [10] appears, read: wild type E. coli NCM3722, growth: P-lim chemostat, doubling time 6 h.
Where [11] appears, read: wild type E. coli NCM3722, growth: P-lim chemostat, doubling time 12 h.
The mark [12] stands for this setting: E. coli NCM3722 delta-clpP, growth: N-lim chemostat, doubling time 6 h.

As for “MNKTLIAAAVAGIVLLASNAQAQTVPEGYQLQQVLMMSRHNLRAPLANNGSVLEQSTPNKWPEWDVPGGQLTTKGGVLEVYMGHYMREWLAEQGMVKSGECPPPYTVYAYANSLQRTVATAQFFITGAFPGCDIPVHHQEKMGTMDPTFNPVITDDSAAFSEQAVAAMEKELSKLQLTDSYQLLEKIVNYKDSPACKEKQQCSLVDGKNTFSAKYQQEPGVSGPLKVGNSLVDAFTLQYYEGFPMDQVAWGEIKSDQQWKVLSKLKNGYQDSLFTSPEVARNVAKPLVSYIDKALVTDRTSAPKITVLVGHDSNIASLLTALDFKPYQLHDQNERTPIGGKIVFQRWHDSKANRDLMKIEYVYQSAEQLRNADALTLQAPAQRVTLELSGCPIDADGFCPMDKFDSVLNEAVK”, the “total protein half-life in vivo” value under setting [1] amounted to 5.71 ± 0.47 h; the “total protein half-life in vivo” value under setting [2] is 6.81 ± 0.17 h; the “total protein half-life in vivo” value under setting [3] was determined as 6.9 ± 0.04 h; the “total protein half-life in vivo” value under setting [4] was 5.96 ± 0.12 h; the “total protein half-life in vivo” value under setting [5] stood at 3.51 ± 0.45 h; the “total protein half-life in vivo” value under setting [6] was found to be 6.07 ± 0.17 h. Further, the “total protein half-life in vivo” value runs as follows: under setting [7], 12 ± 1.7 h; under setting [8], 6.05 ± 0.63 h; under setting [9], 11.1 ± 1.5 h; under setting [10], 6.4 ± 1.7 h; under setting [11], 12.3 ± 1.5 h.
“MKKTQRKEIENVTNITGVRQIELWRRDDLQHPRLDEVAEEVPVALVYNGISHVVMMASPKDLEYFALGFSLSEGIIESPRDIFGMDVVPSCNGLEVQIELSSRRFMGLKERRRALAGRTGCGVCGVEQLNDIGKPVQPLPFTQTFDLNKLDDALRHLNDFQPVGQLTGCTHAAAWMLPSGELVGGHEDVGRHVALDKLLGRRSQEGESWQQGAVLVSSRASYEMVQKSAMCGVEILFAVSAATTLAVEVAERCNLTLVGFCKPGRATVYTHPQRLSN”: the “total protein half-life in vivo” value reads like this: under setting [1], 5.53 ± 0.71 h; under setting [12], over 8 h; under setting [2], 3.83 ± 0.57 h; under setting [3], 4.1 ± 0.3 h; under setting [4], 3.793 ± 0.019 h; under setting [5], 2.89 ± 0.25 h. The “total protein half-life in vivo” value under setting [6] was determined as 4.79 ± 0.16 h; the “total protein half-life in vivo” value under setting [7] turned out to be 9.01 ± 0.31 h; the “total protein half-life in vivo” value under setting [8] was 3.88 ± 0.38 h; the “total protein half-life in vivo” value under setting [9] was 6.61 ± 0.14 h; the “total protein half-life in vivo” value under setting [10] amounted to 4.99 ± 0.11 h; the “total protein half-life in vivo” value under setting [11] was determined as 10.5 ± 0.64 h.
For “MFSEVMRYILDLGPTVMLPIVIIIFSKILGMKAGDCFKAGLHIGIGFVGIGLVIGLMLDSIGPAAKAMAENFDLNLHVVDVGWPGSSPMTWASQIALVAIPIAILVNVAMLLTRMTRVVNVDIWNIWHMTFTGALLHLATGSWMIGMAGVVIHAAFVYKLGDWFARDTRNFFELEGIAIPHGTSAYMGPIAVLVDAIIEKIPGVNRIKFSADDIQRKFGPFGEPVTVGFVMGLIIGILAGYDVKGVLQLAVKTAAVMLLMPRVIKPIMDGLTPIAKQARSRLQAKFGGQEFLIGLDPALLLGHTAVVSASLIFIPLTILIAVCVPGNQVLPFGDLATIGFFVAMAVAVHRGNLFRTLISGVIIMSITLWIATQTIGLHTQLAANAGALKAGGMVASMDQGGSPITWLLIQVFSPQNIPGFIIIGAIYLTGIFMTWRRARGFIKQEKVVLAE”, the “total protein half-life in vivo” value under setting [1] was 6.09 h.
In the case of “MRFSRFIIGLTSCIAFSVQAANVDEYITQLPAGANLALMVQKVGASAPAIDYHSQQMALPASTQKVITALAALIQLGPDFRFTTTLETKGNVENGVLKGDLVARFGADPTLKRQDIRNMVATLKKSGVNQIDGNVLIDTSIFASHDKAPGWPWNDMTQCFSAPPAAAIVDRNCFSVSLYSAPKPGDMAFIRVASYYPVTMFSQVRTLPRGSAEAQYCELDVVPGDLNRFTLTGCLPQRSEPLPLAFAVQDGASYAGAILKDELKQAGITWSGTLLRQTQVNEPGTVVASKQSAPLHDLLKIMLKKSDNMIADTVFRMIGHARFNVPGTWRAGSDAVRQILRQQAGVDIGNTIIADGSGLSRHNLIAPATMMQVLQYIAQHDNELNFISMLPLAGYDGSLQYRAGLHQAGVDGKVSAKTGSLQGVYNLAGFITTASGQRMAFVQYLSGYAVEPADQRNRRIPLVRFESRLYKDIYQNN”, the “total protein half-life in vivo” value reads like this: under setting [1], 6.48 ± 0.36 h; under setting [12], 6.25 ± 0.35 h; under setting [2], 6.87 ± 0.72 h; under setting [3], 6.194 ± 0.044 h; under setting [4], 6.051 ± 0.02 h; under setting [5], 3.24 ± 0.54 h. The “total protein half-life in vivo” value was 6.21 ± 0.86 h under setting [6]; 12.7 ± 0.72 h under setting [7]; 6.15 ± 0.52 h under setting [8]; 13.4 ± 0.64 h under setting [9]; 6.25 ± 0.55 h under setting [10]; 12.6 ± 0.42 h under setting [11].
As to “MSRPRRRGRDINGVLLLDKPQGMSSNDALQKVKRIYNANRAGHTGALDPLATGMLPICLGEATKFSQYLLDSDKRYRVIARLGQRTDTSDADGQIVEERPVTFSAEQLAAALDTFRGDIEQIPSMYSALKYQGKKLYEYARQGIEVPREARPITVYELLFIRHEGNELELEIHCSKGTYIRTIIDDLGEKLGCGAHVIYLRRLAVSKYPVERMVTLEHLRELVEQAEQQDIPAAELLDPLLMPMDSPASDYPVVNLPLTSSVYFKNGNPVRTSGAPLEGLVRVTEGENGKFIGMGEIDDEGRVAPRRLVVEYPA”, the “total protein half-life in vivo” value was found to be 5.81 ± 0.72 h under setting [1]; 4.93 ± 0.41 h under setting [12]; 4.51 ± 0.27 h under setting [2]; 4.83 ± 0.34 h under setting [3]; 4.29 ± 0.17 h under setting [4]; 3.06 ± 0.59 h under setting [5]. The “total protein half-life in vivo” value reads like this: under setting [6], 5.2 ± 0.55 h; under setting [7], 9.72 ± 0.41 h; under setting [8], 4.89 ± 0.18 h; under setting [9], 7.6476 ± 0.0051 h; under setting [10], 5.59 ± 0.17 h; under setting [11], 12.2 ± 2.5 h.
Consider “MTKLQLKYRELKIISVIAASENISHAATVLGIAQANVSKYLADFESKVGLKVFDRTTRQLMLTPFGTALLPYINDMLDRNEQLNNFIADYKHEKRGRVTIYAPTGIITYLSKHVIDKIKDIGDITLSLKTCNLERNAFYEGVEFPDDCDVLISYAPPKDESLVASFITQYAVTAYASQRYLEKHPISRPDELEHHSCILIDSMMIDDANIWRFNVAGSKEVRDYRVKGNYVCDNTQSALELARNHLGIVFAPDKSVQSDLQDGTLVPCFQQPYEWWLDLVAIFRKREYQPWRVQYVLDEMLREIRHQLAQSQQLRPEQAAESED”, for which the “total protein half-life in vivo” value under setting [1] was determined as 5.588 ± 0.0059 h; the “total protein half-life in vivo” value under setting [12] was found to be 5.07 ± 0.4 h; the “total protein half-life in vivo” value under setting [2] was 4.7 ± 0.45 h; the “total protein half-life in vivo” value under setting [3] came to 4.98 ± 0.36 h; the “total protein half-life in vivo” value under setting [4] came out at 4.54 ± 0.47 h; the “total protein half-life in vivo” value under setting [5] worked out at 2.74 ± 0.18 h. The “total protein half-life in vivo” value under setting [7] turned out to be 10.9 ± 2 h; the “total protein half-life in vivo” value under setting [8] was determined as 4.15 ± 0.18 h; the “total protein half-life in vivo” value under setting [9] came out at 7.04 ± 0.43 h; the “total protein half-life in vivo” value under setting [10] turned out to be 6.03 ± 0.88 h; the “total protein half-life in vivo” value under setting [11] worked out at 10.1 ± 0.15 h.
